In patent US6632626 (dated 2003):

Tests used:
[1] = target: T1, rat brain farnesyl:protein transferase (rat, UniProt Q04631 2-377; Q02293 1-437); assay: cell-based or functional assay
[2] = target: T1, rat brain farnesyl:protein transferase; assay: cell-based or functional assay; remark: listed apart in the source

Binder | Concentration for 50% Inhibition (farnesyl transfer to p21^H-ras) [1] | concentration giving 50% inhibition (farnesyl transfer to p21^H-ras) [2]
CVIE [CVIM with glutamic acid at the X position] |  | > 40 µM
CVIK [CVIM with lysine at the X position] |  | > 40 µM

More lines, now with the values ahead:

Concentration for 50% Inhibition (farnesyl transfer to p21^H-ras) [1] | concentration giving 50% inhibition (farnesyl transfer to p21^H-ras) [2] | Binder
100 µM |  | CAIL
 | > 40 µM | CVIG [CVIM with glycine at the X position]
